Source: US20140057807A1 (UNIVERSITY OF CHICAGO, published 2014)
Numbering of substitutions follows the chain as printed.

T1: human Abl SH2 domain (human, UniProt P00519 112-232, limits assumed)
T1 construct: domain: SH2 domain; poly-histidine tagged in selection; tag cleaved for SPR and crystals; also called Ab1SH2; SH2 domain of Abl kinase
T1 sequence (looked up): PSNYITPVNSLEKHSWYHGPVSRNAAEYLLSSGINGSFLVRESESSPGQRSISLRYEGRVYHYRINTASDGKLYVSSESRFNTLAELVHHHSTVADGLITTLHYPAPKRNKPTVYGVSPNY

B1: ySMB-5 (designed binder)
chain: VSSVPTKLEVVAATPTSLLISWDAPANSVSYYRITYGETGGNSPVQEFTVPGSSSTATISGLSPGVDYTITVYAYEWYGWGWTYSPISINYRT
notes: variable loops only; library YSGW
B2: ySMB-2 (designed binder)
chain: VSSVPTKLEVVAATPTSLLISWDASSSSVSYYRITYGETGGNSPVQEFTVPGSSSTATISGLSPGVDYTITVYAYWTYEWGYMYDSPISINYRT
B3: ySMB-7 (designed binder)
chain: B2 chain with W76Q, T77E, Y78W, E79S, W80Y, Y82W, M83S, Y84S, D85E
notes: as for B1
B4: ySMB-6 (designed binder)
chain: B2 chain with G52S, S53Y, T77E, Y78F, W80Y, M83W, Y84S, D85Y
notes: as for B1
B5: ySMB-4 (designed binder)
chain: VSSVPTKLEVVAATPTSLLISWDAPWAYSQSVAYYRITYGETGGNSPVQEFTVPGSSSTATISGLSPGVDYTITVYAYYGTPWGEGWYSWSPISINYRT
notes: as for B1
B6: ySMB-8 (designed binder)
chain: VSSVPTKLEVVAATPTSLLISWDAYVGYGSSVAYYRITYGETGGNSPVQEFTVPGSSSTATISGLSPGVDYTITVYAYYYEGDDLYSSMSPISINYRT
notes: as for B1
B7: hS1MB-7 (designed binder)
chain: VSSVPTKLEVVAATPTSLLISWDASSSSVSYYEITYGETGGNSPVQEFTVPGSSSTATISGLSPGVDYTITVIAFYSHDDIYISDSPSSINYRT
B8: hS1MB-23 (designed binder)
chain: B7 chain with Y31H, I73Y, F75Y, Y82F, I83Y, S84A, D85F
B9: hS1MB-16 (designed binder)
chain: B7 chain with Y31H, E33D, I73Y, F75Y, Y76N, Y82F, S84A, D85Y
B10: GG3 (designed binder)
chain: VSSVPTKLEVVAATPTSLLISWDAPAVTVVHYVITYGETGGNSPVQEFTVPGSKSTATISGLSPGVDYTITVYALLSSSHWVYESPISINYRT
B11: SEQ ID NO 85 (designed binder)
chain: VSSVPTKLEVVAATPTSLLISWDAPAVTVDLYVITYGETGGNSPVQEFTVPGSKSTATISGLSPGVDYTITVYAGWGNWELGYSWSSPISINYRT
B12: SEQ ID NO 81 (designed binder)
chain: VSSVPTKLEVVAATPTSLLISWDAPAVTVDLYLITYGETGGNSPVQEFKVPGSKSTATISGLSPGVDYTITVYAGSDYYYYYQGAYWSPISINYRT
B13: SEQ ID NO 82 (designed binder)
chain: VSSVPTKLEVVAATPTSLLISWDAPAVTVDFYVITYGETGGNSPVQEFTVPGSKSTATISGLSPGVDYTITVYANWAYSYRYSPISINYRT
B14: SEQ ID NO 84 (designed binder)
chain: B13 chain with F31Y, V33L, N75W, W76D, A77P, S79W, Y80D, R81V, Y82M
B15: SEQ ID NO 83 (designed binder)
chain: B13 chain with D30F, F31Y, T49E, W76Y, A77P, R81M
B16: ySMB-54 (designed binder)
chain: VSSVPTKLEVVAATPTSLLISWDAGYDESVMYYRITYGETGGNSPVQEFTVPGSSSTATISGLSPGVDYTITVYAYREYDGLYYSYSPISINYRT
notes: as for B1
B17: ySMB-53 (designed binder)
chain: VSSVPTKLEVVAATPTSLLISWDASSSSVSYYRITYGETGGNSPVQEFTVPGSSSTATISGLSPGVDYTITVYAYQSFGYNEYWSSGSPISINYRT
notes: as for B1
B18: ySMB-91 (designed binder)
chain: VSSVPTKLEVVAATPTSLLISWDASYSSSSVSYYRITYGETGGNSPVQEFTVPGSSSTATISGLSPGVDYTITVYAYYYSYYYYYSYSPISINYRT
notes: variable loops only; library YS
B19: ySMB-64 (designed binder)
chain: VSSVPTKLEVVAATPTSLLISWDASQFSGVSYYRITYGETGGNSPVQEFTVPGSYSTATISGLSPGVDYTITVYAYYHEHWGYYSYSPISINYRT
notes: as for B1
B20: ySMB-67 (designed binder)
chain: VSSVPTKLEVVAATPTSLLISWDAGSFGFHDPVYYYRITYGETGGNSPVQEFTVPGSSSTATISGLSPGVDYTITVYAYYQYMDYYYSYSPISINYRT
notes: as for B1
B21: Clone# 1 (ySUMO Monobodies) (designed binder)
chain: B7 chain with E33R, I73Y, F75Y, H78Y, D79Y, I83Y, S84A, D85V
notes: recovered against ySUMO from the SUMO-targeted library
B22: Clone# 2 (ySUMO Monobodies) (designed binder)
chain: B2 chain with W76Y, T77S, Y78E, W80F, G81F, Y82D, M83Y, Y84A, D85V, I88S
notes: as for B21
B23: Clone# 4 (ySUMO Monobodies) (designed binder)
chain: B7 chain with E33R, I73Y, F75Y, H78D, D80F, I81L, Y82D, I83F, S84A, D85F
notes: as for B21
B24: Clone# 3 (ySUMO Monobodies) (designed binder)
chain: VSSVPTKLEVVAATPTSLLISWDASSSSVSYYRITYGETGGNSPVQEFTVPGSSSTATISGLSPGVDYTITVFAYYSEEFFDYAYSPSSINYRT
notes: as for B21
B25: Clone# 5 (ySUMO Monobodies) (designed binder)
chain: B24 chain with F73Y, E78Y, E79Y, F80N, F81I, D82F, Y83F, Y85D
notes: as for B21
B26: ySMB-ST1 (designed binder)
chain: B24 chain with F73Y, E78Y, E79Y, F80D, F81I, D82Y, Y85V
B27: ySMB-ST2 (designed binder)
chain: B24 chain with F73Y, Y85V
B28: ySMB-ST4 (designed binder)
chain: B24 chain with F73Y, E78D, E79D, F81L, Y83F, Y85F
B29: ySMB-ST5 (designed binder)
chain: B24 chain with F73Y, E78Y, E79Y, F80N, F81I, D82F, Y83F, Y85D
B30: ySMB-ST3 (designed binder)
chain: B24 chain

These binders were tested against T2, yeast small ubiquitin-like modifier protein (yeast, UniProt Q12306 3-98 = SUMO) (assay: SPR).
T2 construct: GST fusion in most phage ELISAs, His-tagged or tag-cleaved elsewhere; also called ySUMO; yeast SUMO
T2 sequence (Q12306 3-98 limits assumed): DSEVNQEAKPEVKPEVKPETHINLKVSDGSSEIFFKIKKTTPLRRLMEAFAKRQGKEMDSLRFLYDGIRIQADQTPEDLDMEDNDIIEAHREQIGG
Procedure: (§1) Cradle molecules purified as described above were immobilized via His-tag to an NTA surface using a Biacore™ 2000 instrument so that the theoretical maximum response (Rₘₐₓ) from target binding was 100-200 RU. Target protein at varying concentrations was then flowed over the surface at a flow rate of 30 μL/min and the binding signal recorded. Fitting of kinetic traces was carried out using the BIAevaluation software. For equilibrium experiments, the equilibrium binding response was recorded for multiple target concentrations and fit to a simple 1:1 saturation binding curve.

Binder	Kd [nM]
B1	100
B2	45
B3	800
B4	166
B5	210
B6	350

What follows are binders tested against T2, yeast small ubiquitin-like modifier … (assay: titration phage ELISA).
Procedure: hSUMO1-binding cradle molecules had varied ability to discriminate hSUMO1 and ySUMO as assessed by phage ELISA (FIGS. 25A and 26A).
For phage amplification, E. coli XL1-Blue cells transformed with the LacI containing plasmid pMCSG21 (Stols, et al., Protein Express. Purif. (2007) 53:396-403) (termed “XL21” hereafter) were used. Cradle molecule displaying phage were prepared by growing XL21 cells transfected with phagemid of individual clones in the presence of 0.2 mM IPTG and helper phage K07 (Koide, A., and Koide, S., supra, 2007; Sidhu, et al., supra, 2000). Cultures were then centrifuged and phage containing supernatant used for ELISA assays. All incubations were at room temperature. In all instances except for the phage titration experiment used to test hSUMO1-binding cradle molecule specificity (FIG. 26), wells of a 96-well Microlon© (Greiner) ELISA plate were treated with a 2 μg/mL solution of a GST-fusion of the appropriate target protein, or GST alone in 50 mM Tris Cl buffer containing 150 mM NaCl, pH 7.5 (TBS) and incubated for 1 hour followed by blocking with 0.5% BSA in TBS for 1 hour.

Binder	fold weaker binding to ySUMO than to hSUMO1 [fold]
B7	≥ 100
B8	≥ 100
B9	≥ 100

The binders below were run against T2, yeast small ubiquitin-like modifier … (assay: SPR; column 'Estimated Kd (nM)').
How it was run: (§2)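 Surface plasmon resonance on a Biacore 2000: purified His-tagged molecules were captured on an NTA surface to give a theoretical maximum target response of 100-200 RU. Target at varying concentrations was flowed at 30 μL/min and the binding signal recorded. Estimated Kd came either from kinetic fitting in BIAevaluation software or from equilibrium responses at multiple concentrations fit to a 1:1 saturation binding curve.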

Binder	Kd [nM]
B1	100
B2	45
B3	800
B4	166
B5	210
B6	350

These binders were tested against T1, human Abl SH2 domain (assay: phage display selection hit, BL2 library).

Binder	binding result
B10	binds
B11	binds
B12	binds
B13	binds
B14	binds
B15	binds

What follows are binders tested against T2, yeast small ubiquitin-like modifier … (assay: SPR; column 'Estimated Kd (nM)' [Continued]).
How it was run: as §2

Binder	Kd [nM]
B16	950
B17	380

Biological target: T2, yeast small ubiquitin-like modifier …
Experiment: SPR; column 'Estimated Kd (nM)' [Continued]
Remark: another data set of the same source
How it was run: as §2

Binder	Kd [nM]
B18	1000
B19	280
B20	1000

The binders below were run against T2, yeast small ubiquitin-like modifier … (assay: SPR, fit of the traces to a 1:1 binding model [panel D]).
Procedure: as §1

Binder	koff [s⁻¹]	kon [M⁻¹ s⁻¹]
B2	0.04	970000

What follows are binders tested against T2, yeast small ubiquitin-like modifier … (assay: SPR (monobody on the chip via His-tag, target flowed); estimated Kd).
Procedure: as §1

Binder	Kd [nM]
B21	39
B22	194
B23	3300
B24	435
B25	112

What follows are binders tested against T2, yeast small ubiquitin-like modifier … (assay: SPR (Biacore 2000), monobody immobilised via His-tag on NTA surface, ySUMO flowed over it).
Procedure: as §1

Binder	Kd [nM]
B26	39
B27	194
B28	3300
B29	112
B30	435

Each binder was assayed against T2, yeast small ubiquitin-like modifier … (assay: titration phage ELISA: His-tagged target captured via BT-Tris-NTA on NeutrAvidin-coated wells, serial 5-fold dilutions of phage supernatant).
How it was run: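 Phage ELISA with phage-containing supernatant from XL21 cells grown with 0.2 mM IPTG and helper phage K07. His-tagged target (50 nM) was complexed with BT-Tris NTA on NeutrAvidin-coated, BSA-blocked wells for 30 minutes. A 30% phage supernatant and serial 5-fold dilutions in TBS/0.5% BSA were incubated for 30 minutes at room temperature. Detection used anti-M13-HRP and TMB, quenched with H₂SO₄, with absorbance at 450 nm scaled to 1 cm path-length.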

Binder	binding result
B7	no binding
